Measurements taken from IntAct's records for PubMed 11781565.

B1: Cell division cycle-related protein res1/sct1 (Schizosaccharomyces pombe (strain ATCC 38366 / 972)), P33520 (parent)
chain: MYNDQIHKITYSGVEVFEYTINGFPLMKRCHDNWLNATQILKIAELDKPRRTRILEKFAQKGLHEKIQGGCGKYQGTWVPSERAVELAHEYNVFDLIQPLIEYSGSAFMPMSTFTPQSNRKPTEAYRRNSPVKKSFSRPSHSLLYPYTSSNNMTSTSRMSGIHDALSLQSDFTRSPDMPSDSFTGSLHDIKASPFSSNNYAQSLLDYFLLPNTTQPPDFVYDRPSDWDVNAGIDEDGHTALHWAAAMGNLEMMHALLQAGANVVAVNYLQQTSLMRCVMFTMNYDLQTFEVVSELLQSAICMNDSFGQTVFHHIALLASSKSKMEAARYYMDILLQNLTATQSVDVAAQIINLQDDHGDTALLICARNGAKKCARLLLSFYASSSIPNNQGQYPTDFLSSKDMSFPENDDSPLNSKIEDNLIDNLKYPQSLDDHLSSKKPISYFSNKLTHQTLPNVFTQLSELSKCHEASLAEKQLTYNLAMEALEQTVRETETCQRLWNERTNNDENYLVNQREDLIHQCKKFLHTLKTARYYLETVQLHQLKKYVTYFSQIWSTDELADISETKNLVGHDTKTNRSSLSSKHEVDLFTAENEAAREKLVEQLCSLQAQRKQKINEILNLLSMGMYNTINTDQSGS
partner: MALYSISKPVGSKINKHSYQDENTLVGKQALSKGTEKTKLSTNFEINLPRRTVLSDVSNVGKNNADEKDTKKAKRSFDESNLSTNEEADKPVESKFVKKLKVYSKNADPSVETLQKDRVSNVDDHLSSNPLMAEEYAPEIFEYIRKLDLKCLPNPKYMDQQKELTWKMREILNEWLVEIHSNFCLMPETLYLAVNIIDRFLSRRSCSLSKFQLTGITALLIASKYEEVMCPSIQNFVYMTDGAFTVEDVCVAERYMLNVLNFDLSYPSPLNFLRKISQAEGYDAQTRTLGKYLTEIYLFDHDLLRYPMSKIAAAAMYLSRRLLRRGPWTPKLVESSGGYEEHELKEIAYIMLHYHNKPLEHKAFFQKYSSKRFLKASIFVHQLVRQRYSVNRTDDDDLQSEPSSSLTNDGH

Variants of: B1
Settings: with cg22_schpo cig2, P36630
S130A was tested, and the “effect of a mutation on the interaction” value was “increasing interaction”.

Variants of: B1
Settings: with cg22_schpo cig2, P36630
Remark: another data set of the same source
For S130A, the “effect of a mutation on the interaction” value was “disrupting interaction”.
